The numbers were not newly measured in paper PMC12818570, which cites them from elsewhere.

A word on the pKa: it is the negative logarithm of the acid dissociation constant.

The target of this data set is His57 (UniProt position 57, ILPVTHTEISP). As to the kind of experiment: electrophysiology (solid-supported membrane electrophysiology, SSME, on isolated lysosomes). Particulars: 90 mM NaCl + 50 mM NaCl or KCl, 5 mM MgCl2; 30 mM HEPES, 30 mM MES, titrated with HCl or NaOH; channel in lysosomal membrane, pH equilibrated symmetrically on both sides, no applied voltage.

For the substance “Transmembrane protein 175 (TMEM175), endosomal/lysosomal cation channel (Homo sapiens)”, the pKa is on record as 7.0 ± 0.1.
